What was measured:
CDK4/cyclin D1 complex = CDK4/cyclin D1 complex (UniProt P11802); experiment: cell-based or functional assay
CDC2/cyclin B = CDC2/cyclin B (UniProt P06493); experiment: in vitro kinase assay; mixture of p27 and p16
CDK2/cyclin E = CDK2/cyclin E (UniProt P24941); experiment: in vitro kinase assay; mixture of p27 and p16
CDC2/cyclin B complex = CDC2/cyclin B complex (UniProt P06493); experiment: cell-based or functional assay
CDK2/cyclin A complex = CDK2/cyclin A complex (UniProt P24941); experiment: cell-based or functional assay
CDK2/cyclin E complex = CDK2/cyclin E complex (UniProt P24941); experiment: cell-based or functional assay

CDK4/cyclin D1 complex, sequence (P11802 whole entry, chain 1 of 2): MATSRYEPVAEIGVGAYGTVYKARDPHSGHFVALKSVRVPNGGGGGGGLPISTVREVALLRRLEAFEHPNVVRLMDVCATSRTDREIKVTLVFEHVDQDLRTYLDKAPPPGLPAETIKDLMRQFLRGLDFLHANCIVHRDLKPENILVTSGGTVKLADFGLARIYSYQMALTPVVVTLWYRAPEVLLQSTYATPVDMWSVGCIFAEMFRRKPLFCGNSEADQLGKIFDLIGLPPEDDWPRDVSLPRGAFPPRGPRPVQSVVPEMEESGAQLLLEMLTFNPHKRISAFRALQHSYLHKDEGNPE
CDK4/cyclin D1 complex, sequence (P24385 whole entry, chain 2 of 2, further chain): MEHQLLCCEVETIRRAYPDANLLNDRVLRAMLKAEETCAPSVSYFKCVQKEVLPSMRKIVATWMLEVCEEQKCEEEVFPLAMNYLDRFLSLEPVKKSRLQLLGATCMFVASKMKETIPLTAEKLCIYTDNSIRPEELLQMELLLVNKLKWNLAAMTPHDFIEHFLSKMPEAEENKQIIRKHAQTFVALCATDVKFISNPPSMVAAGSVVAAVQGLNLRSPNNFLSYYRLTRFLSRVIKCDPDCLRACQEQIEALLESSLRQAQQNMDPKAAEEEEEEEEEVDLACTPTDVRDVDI
CDC2/cyclin B complex, sequence (P06493 whole entry, one chain of several): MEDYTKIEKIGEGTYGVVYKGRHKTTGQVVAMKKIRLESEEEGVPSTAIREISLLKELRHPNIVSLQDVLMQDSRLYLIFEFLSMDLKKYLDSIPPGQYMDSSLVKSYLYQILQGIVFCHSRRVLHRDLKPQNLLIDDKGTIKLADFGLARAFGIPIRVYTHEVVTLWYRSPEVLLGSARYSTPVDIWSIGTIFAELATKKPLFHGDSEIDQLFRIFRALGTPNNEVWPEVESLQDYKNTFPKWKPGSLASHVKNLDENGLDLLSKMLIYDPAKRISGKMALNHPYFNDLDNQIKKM
CDC2/cyclin B, sequence (P06493 whole entry): as the sequence (P06493 whole entry, one chain of several) above

human p27 (from UniProt P46527 1-198)
IC50, in vitro kinase activity (GST-Rb phosphorylation) (CDK4/cyclin D1 complex): 63 nM

p27 + p16
IC50 (CDC2/cyclin B): 12 nM | IC50 (CDK2/cyclin E): 1.7 nM

p27-p16 fusion protein
IC50, in vitro kinase activity (histone H1 phosphorylation) (CDC2/cyclin B complex): 15 nM | IC50, in vitro kinase activity (CDK2/cyclin A complex): 25 nM | IC50, in vitro kinase activity (GST-Rb phosphorylation) (CDK2/cyclin E complex): 30 nM | IC50, in vitro kinase activity (GST-Rb phosphorylation) (CDK4/cyclin D1 complex): 25 nM
